From US6787341B2, “Pharmacological targeting of bacterial DNA ligase for treatment and prevention of bacterial infections” (priority 2001, dated 2004)

Tested on: NC(=O)c1ccc[n+]([C@@H]2O[C@H](COP(=O)([O-])OP(=O)(O)OC[C@H]3O[C@@H](n4cnc5c(N)ncnc54)[C@H](O)[C@@H]3O)[C@@H](O)[C@H]2O)c1
Assay: Nucleotide cofactor specificity of AmEPV ligase in nick ligation
Format: biochemical, Amsacta moorei entomopoxvirus
Settings: other: from double-reciprocal plot, sub-saturating enzyme; pH 7.5; 22.0 °C
Method: Reaction mixtures (20 μl) containing 50 mM Tris-HCl (pH 7.5), 10 mM (NH4)2SO4, 5 mM DTT, 5 mM MgCl2, 1 pmol of ^32P-labeled nicked DNA, 32 ng of AmEPV ligase, and 50 μM of the indicated nucleotide were incubated for 30 min at 22° C. A control reaction contained no added nucleotide cofactor (none). The reaction products were resolved by polyacrylamide gel electrophoresis. An autoradiogram of the gel is shown.
A low level of nick ligation could be detected in the absence of added nucleotide (FIG. 6). Cofactor-independent ligation was attributed to pre-adenylated ligase in the enzyme preparation. […] Inclusion of NAD^+ in the reaction mixture stimulated nick ligation such that ˜90% of the input substrate molecules were sealed (FIG. 6). […] Indeed, none of the standard rNTPs or dNTPs were able to satisfy the requirement of AmEPV ligase for a high energy cofactor (FIG. 6). […] A Km of 9 μM NAD^+ was calculated from a double-reciprocal plot of the data.

AmEPV ligase (Betaentomopoxvirus amoorei)
Km: 9 µM
